The target in experiment [1] is T1, full-length class E TetR (Escherichia coli) (UniProt P21337).
T1 sequence: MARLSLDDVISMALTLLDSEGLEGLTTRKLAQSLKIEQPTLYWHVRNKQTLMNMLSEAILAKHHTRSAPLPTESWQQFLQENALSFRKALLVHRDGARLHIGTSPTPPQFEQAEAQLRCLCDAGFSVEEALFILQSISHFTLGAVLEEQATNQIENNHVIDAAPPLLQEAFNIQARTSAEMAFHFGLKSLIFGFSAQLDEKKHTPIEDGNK

In experiment [2] the target is full-length class B TetR (wild-type, Tn10-encoded) (Tn10-encoded (organism not stated)).
Experiment [3] concerns the target T2, full-length class C TetR (Escherichia coli) (UniProt P03039).
T2 sequence: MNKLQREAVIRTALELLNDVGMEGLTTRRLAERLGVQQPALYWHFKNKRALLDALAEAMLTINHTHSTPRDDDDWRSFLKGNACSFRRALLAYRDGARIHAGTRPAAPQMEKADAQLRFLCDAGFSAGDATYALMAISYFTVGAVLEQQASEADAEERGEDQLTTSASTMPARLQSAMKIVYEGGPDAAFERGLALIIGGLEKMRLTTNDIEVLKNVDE

Experiment [4] addresses full-length class D TetR (Escherichia coli) (UniProt P0ACT4).

B1: deletion mutant of the Tn10-encoded class B TetR (Δ26-53) (protein)
chain: MSRLDKSKVINSALELLNEVGIEGLALAIEMLDRHHTHFCPLEGESWQDFLRNKAKSFRCALLSHRDGAKVHLGTRPTEKQYETLENQLAFLCQQGFSLENALYALSAVGHFTLGCVLEDQEHQVAKEERETPTTDSMPPLLRQAIELFDHQGAEPAFLFGLELIICGLEKQLKCESGS
For the molecule B1, the Factor of Transdominance (β-galactosidase activity with against without the deletion mutant) in experiment [1] stood at 1 fold; in experiment [2], 22 fold; in experiment [3] it was 2 fold; in experiment [4], 1.1 fold.
